{
  "source": "paper PMC3050594",
  "about": "(Nature structural & molecular biology, 2010)",
  "target": "RSV F0 Fd glycoprotein (Human respiratory syncytial virus; …, UniProt P03420, stabilised, glycosylated)",
  "experiment": "SEC",
  "data": [
    {"binder": "palivizumab Fab (Fab, V domains shown) VH: QVTLRESGPALVKPTQTLTLTCTFSGFSLSTSGMSVGWIRQPPGKALEWLADIWWDDKKDYNPSLKSRLTISKDTSKNQVVLKVTNMDPADTATYYCARSMITNWYFDVWGAGTTVTVSS VL: DIQMTQSPSTLSASVGDRVTITCKCQLSVGYMHWYQQKPGKAPKLLIYDTSKLASGVPSRFSGSGSGTEFTLTISSLQPDDFATYYCFQGSGYPFTFGGGTKLEIK", "values": [
      {"measurement": "stoichiometry N", "result": 2.97, "unit": "Fabs per trimer"}
    ]}
  ]
}
